Key:
[1] = tested on: tartrate-resistant acid phosphatase (TRAP); test: Quantitative real-time PCR, TRAP mRNA in RAW264.7 cells; assay type: cell-based, mouse; conditions: day 2
Experimental: (§1) METHOD EXAMPLE. Quantitative real-time PCR. Total RNA was extracted using an RNeasy Plus mini kit (Qiagen, Germantown, Md., USA). Reverse transcription was conducted with high capacity cDNA reverse transcription kits (Applied Biosystems, Carlsbad, Calif., USA), and quantitative real-time PCR was performed using ABI 7500 with Power SYBR green PCR master mix kits (Applied Biosystems). We evaluated mRNA levels of ATF4, Osteocalcin (OCN), NFATcl, c-Fos, tartrate-resistant acid phosphatase (TRAP), and osteoclast-associated receptor (OSCAR) with the PCR primers listed in Table 1. GAPDH was used for internal control. The relative mRNA abundance for the selected genes with respect to the level of GAPDH mRNA was expressed as a ratio of Streated/Scontrol, where Streated=mRNA level for the cells treated with chemical agents, and Scontrol=mRNA level for control cells.
(§2) METHOD EXAMPLE. Partial suppression of mRNA levels of NFATcl, c-Fos, TRAP, and OSCAR by salubrinal. […] On day 2, for instance, the RANKL-driven increase was 9.4±0.5 fold (NFATcl), 1.9±0.1 fold (c-fos), 165±4.2 fold (TRAP), and 467±22 fold (OSCAR). The reduction by 20 μM salubrinal was 46% (NFATcl), 32% (c-fos), 35% (TRAP), and 21% (OSCAR) (FIG. 5A).
(§3) METHOD EXAMPLE. Reduction of RANKL-induced NFATcl, c-Fos, TRAP, and OSCAR by guanabenz. […] The normalized level of “1” was defined as the level for the cells that were not treated with RANKL without administration of guanabenz.

[2] = tested on: RAW264.7 mouse pre-osteoclast (monocyte/macrophage) cells; test: Cell mortality and live cell numbers (trypan blue, hemacytometer); assay type: cell-based; conditions: incubation with RANKL (20 ng/ml), 24 h
Experimental: METHOD EXAMPLE. Cell culture. MC3T3 E1 mouse osteoblast-like cells (clone 14—MC3T3 E1-14; and no clonal cells in supplementary figures), and RAW264.7 mouse pre-osteoclast (monocyte/macrophage) cells were cultured in αMEM containing 10% fetal bovine serum and antibiotics (50 units/ml penicillin, and 50 μg/ml streptomycin; Life Technologies, Grand Island, N.Y., USA). Cells were maintained at 37° C. and 5% CO2 in a humidified incubator. Cell mortality and live cell numbers were determined 24 h after the treatment with 20 ng/ml RANKL (PeproTech, Rocky Hills, N.C., USA) in response to 0.1-20 μM salubrinal or 1-20 μM guanabenz acetate (Tocris Bioscience, Ellisville, Mo., USA). Cells were stained with trypan blue and the numbers of live and dead cells were counted using a hemacytometer.
METHOD EXAMPLE. Inhibition of osteoclastogenesis of RAW264.7 cells by salubrinal. The primary aim of this study is to evaluate the effects of salubrinal on osteoclastogenesis. In response to 0.1-20 μM salubrinal for 24 h, cell mortality and live cell numbers of RAW264.7 pre-osteoclasts was examined. […] The number of live cells was increased by ˜50% by incubation with RANKL, and administration of 10-20 μM salubrinal reduced the numbers approximately by 10% (FIG. 3B).
METHOD EXAMPLE. Inhibitory effects of guanabenz on osteoclastogenesis of RAW264.7 cells. To further examine a potential involvement of p-eIF2α in regulation of osteoclastogenesis, we employed guanabenz that also acts as an inhibitor of de-phosphorylation of eIF2α was evaluated. […] Compared to the number of TRAP-positive multi-nucleated cells of 377 39 (RANKL only), guanabenz reduced the number of differentiated osteoclasts to 364±38 (1 μM), 288±51 (5 μM), 189±25 (10 μM), and 73±16 (20 μM).

[3] = tested on: osteoclast-associated receptor (OSCAR); test: Quantitative real-time PCR, OSCAR mRNA in RAW264.7 cells; assay type: cell-based, mouse; conditions: day 2
Experimental: as §1, §2, §3

NFATc1 [4] = test: Western immunoblotting, NFATc1 expression in RAW264.7 cells; assay type: cell-based, mouse; conditions: 24 h
Experimental: METHOD EXAMPLE. Downregulation of NFATcl in RAW264.7 cells by salubrinal. NFATcl is a transcription factor critical for activating osteoclastogenesis. […] The RANKL-induced expression of NFATcl was reduced by administration of 5-20 μM salubrinal on both days, and the effect of salubrinal was dose dependent (FIG. 4).
as §3
METHOD EXAMPLE. Western Immunoblotting. Cells were lysed in a radioimmunoprecipitation assay (RIPA) buffer containing protease inhibitors (Santa Cruz Biotechnology, Santa Cruz, Calif., USA) and phosphatase inhibitors (Calbiochem, Billerica, Mass., USA). Isolated proteins were fractionated using 10-15% SDS gels and electro-transferred to Immobilon-P membranes (Millipore, Billerica, Mass., USA). The membrane was incubated for 1 h with primary antibodies followed by 45 min incubation with goat anti-rabbit or anti-mouse IgG conjugated with horseradish peroxidase (Cell Signaling, Danvers, Mass., USA). We used antibodies against ATF4, NFATcl (Santa Cruz), p-eIF2α (Thermo Scientific, Waltham, Mass., USA), eIF2α, caspase 3, cleaved caspase 3, p38 and p-p38 mitogen activated protein kinase (MAPK), extracellular signal-regulated kinase (ERK) and p-ERK, nuclear factor kappa B (NFκB) p65 and p-NFκB p65 (Cell Signaling), and β-actin (Sigma). Protein levels were assayed using a SuperSignal west femto maximum sensitivity substrate (Thermo Scientific), and signal intensities were quantified with a luminescent image analyzer (LAS-3000, Fuji Film, Tokyo, Japan).
METHOD EXAMPLE. Temporal profile of p-eIF2α and NFATcl. […] Note that the normalized level of “1” in FIG. 6C was defined as the level for the cells that were not treated with RANKL without administration of guanabenz.

c-Fos = test: Quantitative real-time PCR, c-Fos mRNA in RAW264.7 cells; assay type: cell-based, mouse; conditions: day 2
Experimental: as §1, §2, §3

NFATc1 [5] = test: Quantitative real-time PCR, NFATc1 mRNA in RAW264.7 cells; assay type: cell-based, mouse; conditions: day 2
Experimental: as §1, §2, §3

B1: RANKL: cytokine belonging to the tumor necrosis factor family; stimulus for osteoclast differentiation (PeproTech) (protein, UniProt O14788 140-317, looked up)
Tumor necrosis factor ligand …: IRAEKAMVDGSWLDLAKRSKLEAQPFAHLTINATDIPSGSHKVSLSSWYHDRGWAKISNMTFSNGKLIVNQDGFYYLYANICFRHHETSGDLATEYLQLMVYVTKTSIKIPSSHTLMKGGSTKYWSGNSEFHFYSINVGGFFKLRSGEEISIEVSNPSLLDPDQDATYFGAFKVRDID
- RANKL-driven increase of TRAP mRNA level [1]: 165±4.2 fold
- increase of the number of live cells [2]: ~50%
- RANKL-driven increase of OSCAR mRNA level [3]: 467±22 fold
- elevation of NFATc1 by addition of RANKL (NFATc1 [4]): 13.4±3.2 fold
- RANKL-driven increase of c-fos mRNA level (c-Fos): 1.9±0.1 fold
- RANKL-driven increase of NFATc1 mRNA level (NFATc1 [5]): 9.4±0.5 fold
